For 3 molecules, specific lysis of the CD33+-Hek293T cells (51Cr release assay, 20-hour in vitro culture) and Kd results are on record in patent US20120251554A1 (TECHNISCHE UNIVERSIT T DRESDEN, published 2012).

Assay [1] addresses T1, human CD33 (human, UniProt P20138 18-364).
T1 construct: whole, on cells; also called CD33+-Hek293T cells; Hek293T-CD33
In words: cell-based or functional assay.

Assay [2] concerns the target T1, human CD33. In words: method not stated (sentence refers to FIG. 3, flow cytometry). On the technique in general: A flow cytometer gives signals particle by particle.

T1 sequence (P20138 18-364): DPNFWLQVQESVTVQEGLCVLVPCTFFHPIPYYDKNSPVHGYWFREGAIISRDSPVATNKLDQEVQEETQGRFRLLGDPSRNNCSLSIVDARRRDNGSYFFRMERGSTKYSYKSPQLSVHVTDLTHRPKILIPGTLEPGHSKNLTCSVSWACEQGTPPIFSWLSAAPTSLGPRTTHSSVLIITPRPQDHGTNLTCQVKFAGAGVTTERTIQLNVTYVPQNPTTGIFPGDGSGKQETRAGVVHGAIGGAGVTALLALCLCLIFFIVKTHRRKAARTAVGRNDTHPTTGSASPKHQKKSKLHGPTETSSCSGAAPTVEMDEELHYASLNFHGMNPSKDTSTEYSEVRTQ

B1: CD33-L18-GFP-L18-CD3 (bispecific antibody, part only; not given: anti-CD3 scFv, GFP, linkers, not shown: small tags and cut ends; large carriers)
chain, part: EVKLQESGPELVKPGASVKMSCKASGYKFTDYVVHWLKQKPGQGLEWIGYINPYNDGTKYNEKFKGKATLTSDKSSSTAYMEVSSLTSEDSAVYYCARDYRYEVYGMDYWGQGTSVTVSSDIVLTQSPTIMSASPGERVTMTCTASSSVNYIHWYQQKSGDSPKRWIFDTSKVASGVPARFSGSGSGTSYSLTISTMEAEDAATYYCQQWRSYPLTFGDGTRLELKRADAAPTVS
In turn, B1 displayed a specific lysis of the CD33+-Hek293T cells (51Cr release assay, 20-hour in vitro culture) in assay [1] below 86%.

B2: anti-CD33DRB1 (antibody, V domains shown)
VH: EVKLQESGAELVRPGVSVKISCKGSGYTFTDYVLHWVKQSHAKSLEWIGLINTYNGDVRYNQKFMGKATMTIEKSSSTAYMELVRLTSEDSAIYYCARDYRYEYYAMDYWGQGTSVTVSS
VL: DIVLTQSPAIMSASPGEKVTMTCSANSSVSYIHWYQQKSGTSPKRWIFDTSKLASGVPARFSGSGSGTSYSLTISTMEAEDAATYYCQQWTSHPLTFGTGTKLQLKR
notes: Murine monoclonal antibody from a hybridoma (tested as hybridoma supernatant); also called monoclonal anti-CD33DRB1; anti-CD33DRB antibody
The Kd is the free concentration of one partner at which half of the binding sites on the other are occupied at equilibrium, for simple one-to-one binding. High values mean a looser complex, low ones a tighter complex. On to B2, for which the Kd in assay [2] was around 0.1 nM.

B3: anti-CD33DRB2 (antibody, V domains shown)
VH: EVKLQESGPELVKPGASVKMSCKASGYKFTDYVVHWLKQKPGQGLEWIGYINPYNDGTKYNEKFKGKATLTSDKSSSTAYMEVSSLTSEDSAVYYCARDYRYEVYGMDYWGQGTSVTVSS
VL: DIVLTQSPTIMSASPGERVTMTCTASSSVNYIHWYQQKSGDSPKRWIFDTSKVASGVPARFSGSGSGTSYSLTISTMEAEDAATYYCQQWRSYPLTFGDGTRLELKR
notes: Murine monoclonal antibody from a hybridoma; also called monoclonal anti-CD33DRB2; anti-CD33DRB antibody
Consider B3, for which the Kd in assay [2] is around 0.1 nM.
